The target in assay [1] is Alpha SARS-CoV-2 spike on pseudotyped lentivirus (SARS-CoV-2) (UniProt P0DTC2). Description: cell-based or functional assay.
Assay [2] concerns the target Beta SARS-CoV-2 spike on pseudotyped lentivirus (SARS-CoV-2) (UniProt P0DTC2). Description: cell-based or functional assay.
The target of assay [3] is Delta SARS-CoV-2 spike on pseudotyped lentivirus (SARS-CoV-2) (UniProt P0DTC2). Description: cell-based or functional assay.
Assay [4] addresses spike of live SARS-CoV-2 Beta variant (SARS-CoV-2) (UniProt P0DTC2). Description: cell-based or functional assay.
In assay [5] the target is spike of live SARS-CoV-2 Delta variant (SARS-CoV-2) (UniProt P0DTC2). Put plainly: cell-based or functional assay.
Assay [6] concerns the target B.1.1.7 (Alpha) SARS-CoV-2 spike protein, plate-coated (MSD) (SARS-CoV-2) (UniProt P0DTC2). Description: MSD competition vs labelled ACE2.
For assay [7], the target named is B.1.351 (Beta) SARS-CoV-2 spike protein, plate-coated (MSD) (SARS-CoV-2) (UniProt P0DTC2). Put plainly: MSD competition vs labelled ACE2.
Assay [8] has as its target Delta SARS-CoV-2 spike protein, plate-coated (MSD) (SARS-CoV-2) (UniProt P0DTC2). Put plainly: MSD competition vs labelled ACE2.
In assay [9] the target is Omicron SARS-CoV-2 spike protein, plate-coated (MSD) (SARS-CoV-2) (UniProt P0DTC2). Description: MSD competition vs labelled ACE2.
The target of assay [10] is P.1 (Gamma) SARS-CoV-2 spike protein, plate-coated (MSD) (SARS-CoV-2) (UniProt P0DTC2). Description: MSD competition vs labelled ACE2.

This is an account of results in patent US20240327815A1.

In general, IC50 refers to the concentration that gives 50% inhibition. For the substance REGEN-COV, the Pseudovirus Neutralization (IC50, nM) stood at 0.06 nM in assay [1], 4.9 nM in assay [2] and 0.05 nM in [3]. Further, in assay [3], the Pseudovirus neutralization IC50 worked out at 50 pM. In addition, the Live virus neutralization (MN50, nM) in [4] is 0.08 nM; in assay [5], 0.05 nM. This substance had a Live virus neutralization MN50 in assay [5] of 0.05 nM. The IC50 in assay [6] worked out at 60 pM; in assay [7] it was 350 pM; in [8], 50 pM; in [9] it was 13100 pM; in assay [10] it was 400 pM.
